For the assay, the target named is SARS-CoV-2 spike ectodomain trimer (SARS-CoV-2) (UniProt P0DTC2). Put plainly: cryo-EM structure.

The values below come from PMC7857403.

In turn, LCB3 (designed binder) displayed a stoichiometry N (minibinders per spike trimer) of 3.

For LCB1 (designed binder), the stoichiometry N (minibinders per spike trimer) was found to be 3.
